This note sets out measurements from the supplement of paper PMC10724198.

± gives the standard deviation of the averaged measurements.

In the series the test system is Saccharomyces cerevisiae. The series is described as follows: protein stability index of tFT-peptide fusion (C-terminal peptide) (PSI (0-1 scale)); higher = more stable (slower turnover). As to conditions: temperature: 30 C. The protocol:
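MPS profiling in S. cerevisiae of the yeast C-terminome library: the last 12 aa of each annotated ORF are fused to the C-terminus of a sfGFP-mCherry timer, after a GGGS linker. Cells are FACS-sorted into 8 mCherry/sfGFP bins and deep-sequenced. PSI runs from 0 (unstable) to 1 (stable); wild type and das1Δ backgrounds, two technical replicates each.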

[1] abbreviates: genetic background: das1 deletion.

In the case of EVPVNTADRGRL [PMU1 C-terminal 12 aa], the protein stability index is, setting by setting: under setting [1], 0.701 ± 0.021; (genetic background: wild type) 0.76 ± 0.071.
With EWSSGIPHPEMI [ARA2 C-terminal 12 aa], the protein stability index runs as follows: under setting [1], 0.7305 ± 0.0044; (genetic background: wild type) 0.667 ± 0.018.
As to EYEPFVMYIINL [VMA5 C-terminal 12 aa], the protein stability index by setting is: under setting [1], 0.6058 ± 0.001; (genetic background: wild type) 0.545 ± 0.0069.
With EYMIERCRGHVL [YPL108W C-terminal 12 aa], the protein stability index turned out to be 0.708 ± 0.032 under setting [1] and 0.753 ± 0.04 (genetic background: wild type).
For the sequence FANKSSSGGDEV [YIL089W C-terminal 12 aa], the protein stability index came to 0.6849 ± 0.0047 under setting [1] and 0.672 ± 0.028 (genetic background: wild type).
The like results for FASPTLSFFFPI [YGL149W C-terminal 12 aa] were, in that order, 0.724 ± 0.013 and 0.7061 ± 0.002.
For FCTVAKIIQCFL [YDR396W C-terminal 12 aa], in that order: 0.5838 ± 0.0053 and 0.4942 ± 0.0047.
On to FDAVTKTLEKYA [YKR070W C-terminal 12 aa], for which the protein stability index by setting is: under setting [1], 0.68 ± 0.019; (genetic background: wild type) 0.6879 ± 0.0054.
For FDLIKLALQRKK [AGX1 C-terminal 12 aa], in that order: 0.7118 ± 0.0048 and 0.68 ± 0.04.
For FDREDAMKKENK [DPH2 C-terminal 12 aa], in that order: 0.692 ± 0.024 and 0.663 ± 0.059.
With FDYDFLFGNDFA [OAF1 C-terminal 12 aa], the protein stability index by setting is: under setting [1], 0.791 ± 0.006; (genetic background: wild type) 0.75 ± 0.052.
For “FFFSNSFLPASR [YJL127W-A C-terminal 12 aa]”, in that order: 0.7317 ± 0.0022 and 0.788 ± 0.11.
The like results for “FFTIEKYSVRRS [YOL013W-A C-terminal 12 aa]” were, in that order, 0.7332 ± 0.0047 and 0.681 ± 0.01.
The like results for FGYESTDQILKL [NNR1 C-terminal 12 aa] were, in that order, 0.738 ± 0.0047 and 0.708 ± 0.054.
For the sequence FHHTSKTFAFAD [YGR219W C-terminal 12 aa], the protein stability index was 0.696 ± 0.022 under setting [1] and 0.674 ± 0.0088 (genetic background: wild type).
The like results for FHLRHHKGAEEH [ATP17 C-terminal 12 aa] were, in that order, 0.7076 ± 0.0039 and 0.678 ± 0.019.
In the case of FIAHLILTDALK [ULP1 C-terminal 12 aa], the protein stability index is, setting by setting: under setting [1], 0.64 ± 0.025; (genetic background: wild type) 0.691 ± 0.039.
For FIRFAINIHTFI [YJL009W C-terminal 12 aa], the protein stability index is 0.46 ± 0.0057 under setting [1] and 0.377 ± 0.011 (genetic background: wild type).
As for FKQKYDADVLDK [RPL11A C-terminal 12 aa], the protein stability index is, setting by setting: under setting [1], 0.6902 ± 0.0043; (genetic background: wild type) 0.735 ± 0.047.
For FLPINVNDVPST [RGD3 C-terminal 12 aa], in that order: 0.716 ± 0.0089 and 0.708 ± 0.069.
For “FLWEMFELKLYL [YMR119W-A C-terminal 12 aa]”, in that order: 0.7071 ± 0.0016 and 0.71 ± 0.036.
FMKELEMSEESD [RAD4 C-terminal 12 aa]: the protein stability index came out at 0.693 ± 0.015 under setting [1] and 0.738 ± 0.028 (genetic background: wild type).
As to FQSEYNISDILS [CEP3 C-terminal 12 aa], the protein stability index by setting is: under setting [1], 0.703 ± 0.0092; (genetic background: wild type) 0.745 ± 0.023.
FRHNRSNKKSGC [GEX2 C-terminal 12 aa]: the protein stability index by setting is: under setting [1], 0.707 ± 0.032; (genetic background: wild type) 0.668 ± 0.069.
As for FSAGNYKLPPGI [KTR3 C-terminal 12 aa], the protein stability index reads like this: under setting [1], 0.68 ± 0.011; (genetic background: wild type) 0.7009 ± 0.0015.
The like results for FSFSIFFFFCLA [YFR035C C-terminal 12 aa] were, in that order, 0.291 ± 0.017 and 0.285 ± 0.0066.
For FSFTEEPRIVMI [DCD1 C-terminal 12 aa], in that order: 0.689 ± 0.02 and 0.699 ± 0.03.
With FSNAGVEMQIRK [GNA1 C-terminal 12 aa], the protein stability index runs as follows: under setting [1], 0.702 ± 0.0064; (genetic background: wild type) 0.736 ± 0.04.
As for FSSEYLLVHVQQ [YLR458W C-terminal 12 aa], the protein stability index is, setting by setting: under setting [1], 0.662 ± 0.011; (genetic background: wild type) 0.654 ± 0.036.
For FSSSVMIIMKAS [NFT1 C-terminal 12 aa], in that order: 0.5186 ± 0.0012 and 0.115 ± 0.0065.
The like results for “FTFGTPIFLQLL [YFR010W-A C-terminal 12 aa]” were, in that order, 0.653 ± 0.025 and 0.579 ± 0.1.
On to FTFIIIQLFPAL [USE1 C-terminal 12 aa], for which the protein stability index was determined as 0.351 ± 0.016 under setting [1] and 0.385 ± 0.015 (genetic background: wild type).
In turn, FTLVGYDKEFSD [ADH6 C-terminal 12 aa] displayed a protein stability index under setting [1] of 0.6911 ± 0.0014 and a protein stability index (genetic background: wild type) of 0.70114 ± 0.00043.
FVDDNTPLEHVC [YDL086W C-terminal 12 aa]: the protein stability index runs as follows: under setting [1], 0.706 ± 0.011; (genetic background: wild type) 0.7331 ± 0.0011.
On to FVDYKTHPVGAN [RGI1 C-terminal 12 aa], for which the protein stability index reads like this: under setting [1], 0.709 ± 0.01; (genetic background: wild type) 0.7141 ± 0.0028.
In turn, FVFALSYPYEEI [ALG2 C-terminal 12 aa] registered a protein stability index under setting [1] of 0.713 ± 0.011 and a protein stability index (genetic background: wild type) of 0.693 ± 0.038.
For FVKPGEICLREQ [RDH54 C-terminal 12 aa], the protein stability index by setting is: under setting [1], 0.712 ± 0.039; (genetic background: wild type) 0.701 ± 0.014.
The like results for FVNNKGNFKDLK [ARG3 C-terminal 12 aa] were, in that order, 0.722 ± 0.025 and 0.686 ± 0.025.
Consider FWFLFPLRLPGG [IRC16 C-terminal 12 aa], for which the protein stability index is 0.5766 ± 0.0015 under setting [1] and 0.5685 ± 0.0012 (genetic background: wild type).
Take FWNCVDGHLKYD [INM1 C-terminal 12 aa]: the protein stability index runs as follows: under setting [1], 0.724 ± 0.0075; (genetic background: wild type) 0.715 ± 0.043.
The like results for FWTINDDYGFLT [YLR278C C-terminal 12 aa] were, in that order, 0.757 ± 0.029 and 0.77104 ± 0.00063.
For GAAIAGAAAMLL [TIR3 C-terminal 12 aa], in that order: 0.718 ± 0.014 and 0.713 ± 0.022.
The like results for GAGVMAAAAMLL [TIR2 C-terminal 12 aa] were, in that order, 0.714 ± 0.029 and 0.7089 ± 0.0066.
As for GALERKLHIDEN [MAM1 C-terminal 12 aa], the protein stability index under setting [1] was 0.6947 ± 0.0045 and the protein stability index (genetic background: wild type) was 0.692 ± 0.046.
For GAVYFFSKARKA [COX26 C-terminal 12 aa], in that order: 0.7207 ± 0.0023 and 0.654 ± 0.037.
For GCVRSMLRDLQR [GCR2 C-terminal 12 aa], the protein stability index is 0.6733 ± 0.0057 under setting [1] and 0.686 ± 0.01 (genetic background: wild type).
The like results for GEDPYADLFRDF [TPK1 C-terminal 12 aa] were, in that order, 0.731 ± 0.0078 and 0.6846 ± 0.0053.
As to GEGGHFVIKKIS [DIT1 C-terminal 12 aa], the protein stability index under setting [1] came out at 0.6854 ± 0.0056 and the protein stability index (genetic background: wild type) is 0.20324 ± 5.1e-05.
As for GETIRVNYGSTQ [YJR154W C-terminal 12 aa], the protein stability index is, setting by setting: under setting [1], 0.685 ± 0.0089; (genetic background: wild type) 0.689 ± 0.039.
As to GEVVKTIIFGPE [SOR1 C-terminal 12 aa], the protein stability index amounted to 0.7 ± 0.017 under setting [1] and 0.696 ± 0.029 (genetic background: wild type).
The like results for GEYYNLIVPSLD [YGK3 C-terminal 12 aa] were, in that order, 0.7209 ± 0.0012 and 0.698 ± 0.014.
Turning to GFQTGSAKATSA [RPL37B C-terminal 12 aa], the protein stability index is, setting by setting: under setting [1], 0.703 ± 0.02; (genetic background: wild type) 0.697 ± 0.019.
The like results for GGLDCKSNVFMR [PAC1 C-terminal 12 aa] were, in that order, 0.697 ± 0.013 and 0.723 ± 0.0089.
As to “GGNKQAPGLELG [YMR242W-A C-terminal 12 aa]”, the protein stability index is 0.6918 ± 0.0046 under setting [1] and 0.702 ± 0.006 (genetic background: wild type).
As for “GIILRSCWNPRQ [YOL159C-A C-terminal 12 aa]”, the protein stability index is, setting by setting: under setting [1], 0.721 ± 0.019; (genetic background: wild type) 0.69 ± 0.0087.
For GILCSLMEFFTN [TDA6 C-terminal 12 aa], in that order: 0.727 ± 0.053 and 0.712 ± 0.059.
The like results for GKKLVQEAFRIV [YPL039W C-terminal 12 aa] were, in that order, 0.715 ± 0.019 and 0.675 ± 0.035.
As for GKRIIGMLHLDS [PUF4 C-terminal 12 aa], the protein stability index came to 0.685 ± 0.037 under setting [1] and 0.699 ± 0.01 (genetic background: wild type).
Consider GKSSKKKNRSRK [SSH4 C-terminal 12 aa], for which the protein stability index stood at 0.726 ± 0.052 under setting [1] and 0.692 ± 0.018 (genetic background: wild type).
Regarding GLEKKKKKQNNQ [NPR1 C-terminal 12 aa], the protein stability index worked out at 0.69 ± 0.015 under setting [1] and 0.662 ± 0.0018 (genetic background: wild type).
GLLFDKKKKARK [NOP19 C-terminal 12 aa]: the protein stability index was found to be 0.687 ± 0.012 under setting [1] and 0.691 ± 0.043 (genetic background: wild type).
For GNNNCPLHMDYI [STE5 C-terminal 12 aa], in that order: 0.7274 ± 0.0071 and 0.723 ± 0.015.
For GQTSRTVTPAPN [ITC1 C-terminal 12 aa], in that order: 0.726 ± 0.026 and 0.6887 ± 0.0059.
Regarding GRGAISYSDITI [PEP5 C-terminal 12 aa], the protein stability index is, setting by setting: under setting [1], 0.707 ± 0.018; (genetic background: wild type) 0.69 ± 0.0077.
The like results for GRLFEGMPGTET [ITT1 C-terminal 12 aa] were, in that order, 0.709 ± 0.0093 and 0.71 ± 0.03.
For GSEIDFTDYLGP [PUT3 C-terminal 12 aa], in that order: 0.729 ± 0.012 and 0.716 ± 0.017.
For GSLLLGLISFLL [EGT2 C-terminal 12 aa], in that order: 0.669 ± 0.0091 and 0.6486 ± 0.0054.
